Values belong to the molecule of their own block, whether it stands above or below them.
Columns and labels:
[1] = biological target: human FAP (fibroblast activation protein alpha) expressed on HT1080 clone v1.33 cells (human) (UniProt Q12884); experiment: cell ELISA on ethanol-fixed HT1080 v1.33 cells expressing human FAP; rabbit anti-human-IgG-peroxidase, TMB, OD 450 nm
[2] = biological target: T1, human FAP (fibroblast activation protein alpha) expressed on HT1080 clone v1.33 cells (human, UniProt Q12884 1-760); experiment: cell-based or functional assay
T1 sequence (looked up): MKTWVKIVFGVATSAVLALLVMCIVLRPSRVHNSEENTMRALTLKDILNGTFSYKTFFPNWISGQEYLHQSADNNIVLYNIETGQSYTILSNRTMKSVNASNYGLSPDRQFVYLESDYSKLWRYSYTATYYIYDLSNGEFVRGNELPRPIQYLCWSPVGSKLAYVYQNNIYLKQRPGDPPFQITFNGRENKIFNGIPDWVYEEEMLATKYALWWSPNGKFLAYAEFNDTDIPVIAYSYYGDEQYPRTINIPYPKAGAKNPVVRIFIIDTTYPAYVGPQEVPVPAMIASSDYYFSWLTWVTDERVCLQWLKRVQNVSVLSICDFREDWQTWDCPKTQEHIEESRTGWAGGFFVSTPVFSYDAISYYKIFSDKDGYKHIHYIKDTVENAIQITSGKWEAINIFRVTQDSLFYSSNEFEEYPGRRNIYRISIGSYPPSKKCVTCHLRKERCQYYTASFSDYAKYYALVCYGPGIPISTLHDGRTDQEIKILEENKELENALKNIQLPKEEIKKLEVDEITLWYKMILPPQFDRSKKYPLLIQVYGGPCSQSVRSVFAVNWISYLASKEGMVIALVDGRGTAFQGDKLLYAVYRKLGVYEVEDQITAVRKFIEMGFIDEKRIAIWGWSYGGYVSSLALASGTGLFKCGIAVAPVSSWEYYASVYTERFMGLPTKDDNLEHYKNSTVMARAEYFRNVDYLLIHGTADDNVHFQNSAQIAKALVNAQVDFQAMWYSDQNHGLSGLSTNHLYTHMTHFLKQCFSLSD

[3] = biological target: T2, murine FAP expressed on HT1080 clone 13.6 cells (mouse, UniProt P97321 1-761); experiment: cell ELISA on ethanol-fixed HT1080 13.6 cells expressing murine FAP; goat anti-mouse-Ig-peroxidase, TMB, OD 450 nm
T2 construct: whole, on cells; also called mouse FAP
T2 sequence (looked up): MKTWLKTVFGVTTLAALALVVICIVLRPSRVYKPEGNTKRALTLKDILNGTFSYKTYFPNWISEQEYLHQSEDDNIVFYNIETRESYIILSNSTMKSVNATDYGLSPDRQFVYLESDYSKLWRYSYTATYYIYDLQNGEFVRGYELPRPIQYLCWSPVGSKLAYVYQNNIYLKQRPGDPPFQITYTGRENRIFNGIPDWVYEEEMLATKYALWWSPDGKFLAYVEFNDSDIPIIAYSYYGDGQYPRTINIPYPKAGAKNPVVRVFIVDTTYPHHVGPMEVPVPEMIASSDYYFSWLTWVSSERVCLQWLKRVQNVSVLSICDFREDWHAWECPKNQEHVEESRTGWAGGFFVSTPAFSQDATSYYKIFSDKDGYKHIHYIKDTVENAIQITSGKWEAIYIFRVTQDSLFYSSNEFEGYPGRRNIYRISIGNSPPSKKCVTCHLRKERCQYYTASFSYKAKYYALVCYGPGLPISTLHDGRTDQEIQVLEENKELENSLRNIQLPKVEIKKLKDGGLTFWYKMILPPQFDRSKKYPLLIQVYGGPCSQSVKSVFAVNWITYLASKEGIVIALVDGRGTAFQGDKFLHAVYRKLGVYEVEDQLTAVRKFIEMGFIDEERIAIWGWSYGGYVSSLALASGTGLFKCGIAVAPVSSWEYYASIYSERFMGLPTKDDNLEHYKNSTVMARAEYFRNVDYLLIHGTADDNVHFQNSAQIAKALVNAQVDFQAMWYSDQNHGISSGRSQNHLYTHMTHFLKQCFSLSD
Description: The binding of BIBH1 and MFP5 antibodies and the respective antibody conjugates BIBH1-DM1 and MFP5-DM1 to antigen positive and negative HT1080 cells is determined in a cell-ELISA assay. […] Stable clones are generated as described for HT1080 v1.33 and clones positive for murine FAP are screened with the murine FAP specific monoclonal antibody 3D11 (Niedermeyer et al., 2000). For the cell ELISA 100 μl of cell suspensions at various cell densities are seeded per well of a 96-well microliter plate and the cells are incubated overnight in an incubator (37° C., 5% CO2). On the next day, cells are fixed with 100% ethanol. Dilutions of the antibodies BIBH1 and MFP5 and of the conjugates BIBH1-DM1 and MFP5-DM1 are added in duplicates and incubated for two hours. After washing three times with PBS/Tween, diluted rabbit anti-human-IgG-peroxidase conjugate is added for detection of the BIBH1 antibodies and for detection of the MFP5 antibodies a diluted goat anti-mouse-Ig-peroxidase conjugate is added. After incubation for two hours at RT plates are washed again three times with PBS/Tween and bound anti-FAP-antibodies detected by addition of TMB staining solution. […] A: Binding to HT1080 v1.33 expressing human FAP. The binding affinity of the antibodies is retained after conjugation to DM1. [0114] […] Only the murine specific antibody MFP5 binds. [0115] C: Negative control.

EC50 (read off the curve) [1]: 8 ng Ab/ml
Molecule: humanized anti-FAP antibody BIBH1 (sibrotuzumab)

EC50 (read off the curve) [3]: ~6 ng Ab/ml
B3: murine monoclonal antibody MFP5 (antibody, mouse IgG2a, V domains shown)
VH: QVQLQQSGAELARPGASVNLSCKASGYTFTNNGINWLKQRTGQGLEWIGEIYPRSTNTLYNEKFKGKATLTADRSSNTAYMELRSLTSEDSAVYFCARTLTAPFAFWGQGTLVTVSA
VL: QIVLTQSPAIMSASPGEKVTMTCSASSGVNFMHWYQQKSGTSPKRWIFDTSKLASGVPARFSGSGSGTSYSLTISSMEAEDAATYYCQQWSFNPPTFGGGTKLEIKR
notes: also called BIA 13; mAbFAP5

Further lines, the molecule ahead of its results:

B1: BIBH1-DM1 (protein, INN chains, looked up)
VH: QVQLVQSGAEVKKPGASVKVSCKTSRYTFTEYTIHWVRQAPGQRLEWIGGINPNNGIPNYNQKFKGRVTITVDTSASTAYMELSSLRSEDTAVYYCARRRIAYGYDEGHAMDYWGQGTLVTVSS
VL: DIVMTQSPDSLAVSLGERATINCKSSQSLLYSRNQKNYLAWYQQKPGQPPKLLIFWASTRESGVPDRFSGSGFGTDFTLTISSLQAEDVAVYYCQQYFSYPLTFGQGTKVEIK
modifications: DM1 maytansinoid conjugate
EC50 (read off the curve) [1]: 10 ng Ab/ml

B2: MFP5-DM1 (MFP5-SPP-DM1, disulfide-linked immunoconjugate) (other)
VH: B3 VH
VL: B3 VL
EC50 (concentration resulting in 50% cytotoxic effect), MTS cytotoxicity assay, 3 days [2]: ~0.04 nM

B4: MFP5-SMCC-DM1 (other)
VH: B3 VH
VL: B3 VL
EC50, proliferation assay [2]: 0.022 nM

B5: MFP5-SPDB-DM4 (other)
VH: B3 VH
VL: B3 VL
EC50, proliferation assay [2]: 0.029 nM
